Source: patent US20210196796A1 (SYNTHEKINE, published 2021)

T1: orthogonal hCD122 receptor (hoRb), hCD122 with H133D and Y134F (human, UniProt P14784 27-550)
T1 sequence: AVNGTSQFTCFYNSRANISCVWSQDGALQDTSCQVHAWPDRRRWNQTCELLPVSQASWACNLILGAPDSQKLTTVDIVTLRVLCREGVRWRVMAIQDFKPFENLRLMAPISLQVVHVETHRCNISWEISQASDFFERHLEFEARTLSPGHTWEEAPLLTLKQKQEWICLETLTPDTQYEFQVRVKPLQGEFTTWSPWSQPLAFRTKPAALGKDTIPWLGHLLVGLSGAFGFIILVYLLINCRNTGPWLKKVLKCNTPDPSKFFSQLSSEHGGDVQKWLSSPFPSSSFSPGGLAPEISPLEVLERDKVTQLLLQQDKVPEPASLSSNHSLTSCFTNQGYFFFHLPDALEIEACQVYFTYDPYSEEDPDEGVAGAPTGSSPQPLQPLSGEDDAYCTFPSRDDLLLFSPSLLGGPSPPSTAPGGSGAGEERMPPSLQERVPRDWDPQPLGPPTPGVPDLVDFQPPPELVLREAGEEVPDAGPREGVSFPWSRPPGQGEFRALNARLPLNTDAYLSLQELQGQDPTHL


Tests used:
[1] = target: T1, orthogonal hCD122 receptor (hoRb), …; experiment: cell-based or functional assay
[2] = target: T1, orthogonal hCD122 receptor (hoRb), …; experiment: cell-based or functional assay; remark: listed apart in the source
For Relative Proliferation Fold Change 3F8 1:10 in this document: reference of the scale not given here.
For Relative Proliferation Fold Change 3F8 1:2 in this document: reference of the scale not given here.
For Relative Proliferation Fold Change 3F8 1:50 in this document: reference of the scale not given here.
For Relative Proliferation Fold Change NKL 1:10 in this document: reference of the scale not given here.
For Relative Proliferation Fold Change NKL 1:2 in this document: reference of the scale not given here.
For Relative Proliferation Fold Change NKL 1:50 in this document: reference of the scale not given here.

Row | Binder | NKL Ortho Proliferation Signal 1:2 [1] | NKL Ortho Proliferation Signal 1:10 [1] | NKL Ortho Proliferation Signal 1:50 [1] | Relative Proliferation Fold Change NKL 1:2 [1] [fold] | Relative Proliferation Fold Change NKL 1:10 [1] [fold] | Relative Proliferation Fold Change NKL 1:50 [1] [fold] | 3F8 Ortho Proliferation Signal 1:2 [2] [cts/min] | 3F8 Ortho Proliferation Signal 1:10 [2] [cts/min] | 3F8 Ortho Proliferation Signal 1:50 [2] [cts/min] | Relative Proliferation Fold Change 3F8 1:2 [2] [fold] | Relative Proliferation Fold Change 3F8 1:10 [2] [fold] | Relative Proliferation Fold Change 3F8 1:50 [2] [fold]
1 | ΔT3, SQVLKA (ligand) APSSSTKKTQLQLSQLLVLLKAILNGINNYKNPKLTRMLTFKFYMPKKATELKHLQCLEEELKPLEEVLNLAQSKNFHLRPRDLISNINVIVLELKGSETTFMCEYADETATIVEFLNRWITFCQSIISTLT | 60800 | 64600 | 32300 | 4 | 3.73 | 1.99 | 38900 | 34800 | 16000 | 30.5 | 15.1 | 7.52
2 | N88Q, SQVLKA (ligand) APTSSSTKKTQLQLSQLLVLLKAILNGINNYKNPKLTRMLTFKFYMPKKATELKHLQCLEEELKPLEEVLNLAQSKNFHLRPRDLISQINVIVLELKGSETTFMCEYADETATIVEFLNRWITFCQSIISTLT | 4980 | 6960 | 6240 | 0.43 | 0.53 | 0.5 | 644 | 914 | 1070 | 1.25 | 0.84 | 0.6
3 | M104A, SQVLKA (ligand) APTSSSTKKTQLQLSQLLVLLKAILNGINNYKNPKLTRMLTFKFYMPKKATELKHLQCLEEELKPLEEVLNLAQSKNFHLRPRDLISNINVIVLELKGSETTFACEYADETATIVEFLNRWITFCQSIISTLT | 47600 | 54800 | 29500 | 3.88 | 3.48 | 2.09 | 29300 | 42400 | 27100 | 24.4 | 37.6 | 39.7
4 | K97Q, SQVLKA (ligand) APTSSSTKKTQLQLSQLLVLLKAILNGINNYKNPKLTRMLTFKFYMPKKATELKHLQCLEEELKPLEEVLNLAQSKNFHLRPRDLISNINVIVLELQGSETTFMCEYADETATIVEFLNRWITFCQSIISTLT | 53000 | 55400 | 25200 | 3.29 | 3.64 | 1.9 | 35600 | 40100 | 19700 | 91.6 | 32.5 | 33.1
5 | D109C, SQVLKA (ligand) APTSSSTKKTQLQLSQLLVLLKAILNGINNYKNPKLTRMLTFKFYMPKKATELKHLQCLEEELKPLEEVLNLAQSKNFHLRPRDLISNINVIVLELKGSETTFMCEYACETATIVEFLNRWITFCQSIISTLT | 47800 | 44200 | 20400 | 4.2 | 3.22 | 1.52 | 29100 | 34000 | 18600 | 84 | 51.4 | 23.2
6 | I92F, SQVLKA (ligand) APTSSSTKKTQLQLSQLLVLLKAILNGINNYKNPKLTRMLTFKFYMPKKATELKHLQCLEEELKPLEEVLNLAQSKNFHLRPRDLISNINVFVLELKGSETTFMCEYADETATIVEFLNRWITFCQSIISTLT | 32200 | 27000 | 12800 | 2.32 | 1.84 | 0.92 | 29700 | 36300 | 20900 | 80.2 | 57.6 | 18.4
7 | T113N, SQVLKA (ligand) APTSSSTKKTQLQLSQLLVLLKAILNGINNYKNPKLTRMLTFKFYMPKKATELKHLQCLEEELKPLEEVLNLAQSKNFHLRPRDLISNINVIVLELKGSETTFMCEYADETANIVEFLNRWITFCQSIISTLT | 47400 | 48800 | 21400 | 3.71 | 3.45 | 1.63 | 31600 | 33100 | 13600 | 39.6 | 38.8 | 12.7
8 | V91R, SQVLKA (ligand) APTSSSTKKTQLQLSQLLVLLKAILNGINNYKNPKLTRMLTFKFYMPKKATELKHLQCLEEELKPLEEVLNLAQSKNFHLRPRDLISNINRIVLELKGSETTFMCEYADETATIVEFLNRWITFCQSIISTLT | 8530 | 5580 | 4420 | 0.86 | 0.53 | 0.44 | 12500 | 5140 | 2850 | 35.6 | 10 | 2.93
9 | V91K, SQVLKA (ligand) APTSSSTKKTQLQLSQLLVLLKAILNGINNYKNPKLTRMLTFKFYMPKKATELKHLQCLEEELKPLEEVLNLAQSKNFHLRPRDLISNINKIVLELKGSETTFMCEYADETATIVEFLNRWITFCQSIISTLT | 5180 | 5210 | 4940 | 0.74 | 0.63 | 0.53 | 3720 | 992 | 804 | 13.4 | 1.44 | 1.25
10 | L14M, SQVLKA (ligand) APTSSSTKKTQLQMSQLLVLLKAILNGINNYKNPKLTRMLTFKFYMPKKATELKHLQCLEEELKPLEEVLNLAQSKNFHLRPRDLISNINVIVLELKGSETTFMCEYADETATIVEFLNRWITFCQSIISTLT | 57200 | 54500 | 26700 | 3.76 | 3.45 | 1.98 | 39800 | 41500 | 18500 | 40.9 | 34.1 | 12.1
